Residue numbers refer to the chain shown, from its start. Numbers in names are those of the source. Values belong to the binder of their own block, whether it stands above or below them.
Tests used:
[1] = target: T1, cell surface CD22 on Ramos (CD22+) cells (human, UniProt P20273 20-847); assay: flow cytometry, antibody titration on Ramos (CD22+) cells, AF488 anti-human IgG
T1 construct: whole, on cells; also called CD22 on WSU-DLCL2, MHH-PREB-1 and Raji cells
T1 sequence (looked up): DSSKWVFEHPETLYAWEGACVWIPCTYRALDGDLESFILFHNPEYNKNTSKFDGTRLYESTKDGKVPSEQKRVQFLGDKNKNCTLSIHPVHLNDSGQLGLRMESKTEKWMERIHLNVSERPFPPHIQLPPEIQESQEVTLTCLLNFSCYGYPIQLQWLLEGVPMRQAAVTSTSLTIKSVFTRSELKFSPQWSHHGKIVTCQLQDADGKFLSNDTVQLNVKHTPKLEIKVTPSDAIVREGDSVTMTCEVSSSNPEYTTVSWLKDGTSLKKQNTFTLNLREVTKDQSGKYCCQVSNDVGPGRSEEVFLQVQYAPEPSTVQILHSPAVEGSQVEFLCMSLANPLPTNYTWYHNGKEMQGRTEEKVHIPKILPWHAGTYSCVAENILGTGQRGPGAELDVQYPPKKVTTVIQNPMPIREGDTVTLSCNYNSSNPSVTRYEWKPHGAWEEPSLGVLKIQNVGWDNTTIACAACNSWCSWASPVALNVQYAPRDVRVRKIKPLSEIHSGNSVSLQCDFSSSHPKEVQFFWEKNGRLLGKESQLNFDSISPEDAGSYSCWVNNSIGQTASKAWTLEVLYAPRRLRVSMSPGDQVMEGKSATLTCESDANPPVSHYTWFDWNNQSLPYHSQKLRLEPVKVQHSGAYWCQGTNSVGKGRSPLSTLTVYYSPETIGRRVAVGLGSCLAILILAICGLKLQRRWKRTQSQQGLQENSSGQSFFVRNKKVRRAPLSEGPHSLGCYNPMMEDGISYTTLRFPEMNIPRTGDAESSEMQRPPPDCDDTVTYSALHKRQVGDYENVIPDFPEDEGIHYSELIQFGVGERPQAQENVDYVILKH
Method: 100,000 cells per well were resuspended in 900 μL FC buffer in a 96 well deep well plate. Pinatuzumab, Inotuzumab, and pH engineered antibody variants were serially diluted at a 1:3 dilution. 100 μL of diluted antibody was added to each well with final concentration ranging from ˜100 nM to 0.024 pM and incubated for 2 hours at 4° C. Post incubation, the cells were spun at 2000 rpm for 2 min and supernatant was discarded. Cells were washed twice with 500 μL of ice-cold FC buffer and resuspended with 100 μL of FC buffer. The cells were then transferred from the deep well plate to 96 well round bottom plate, spun at 2000 rpm for 2 min and incubated with 100 μL of 10 μg/mL Alexa Fluor 488 conjugated goat anti-human IgG secondary antibody (ThermoFisher Scientific, A11013) for 30 min. Post incubation, cells were washed with FC buffer and resuspended in 100 μL of FC buffer to read on a BD Accuri C6 flow cytometer. Binding affinity was measured as a dissociation constant KD by GraphPad Prism assuming Michaelis-Menten binding kinetics. MYT1331, MYT4405 and MYT4424 show high affinity binding to cell surface CD22 on Ramos cells in the pM-nM range confirming that variants created through pH engineering can retain functionally appropriate affinities as compared to their corresponding starting ABPCs (e.g., inotuzumab or pinatuzumab).

[2] = target: T2, CD22 (Acro Biosystems, Cat #CD2-H52H8) (UniProt P20273 20-687); assay: BLI, IgG on anti-human Fc sensor, 50 nM CD22
T2 construct: soluble analyte, 50 nM in BLI; also called Acro Biosystems antigen
T2 sequence (looked up): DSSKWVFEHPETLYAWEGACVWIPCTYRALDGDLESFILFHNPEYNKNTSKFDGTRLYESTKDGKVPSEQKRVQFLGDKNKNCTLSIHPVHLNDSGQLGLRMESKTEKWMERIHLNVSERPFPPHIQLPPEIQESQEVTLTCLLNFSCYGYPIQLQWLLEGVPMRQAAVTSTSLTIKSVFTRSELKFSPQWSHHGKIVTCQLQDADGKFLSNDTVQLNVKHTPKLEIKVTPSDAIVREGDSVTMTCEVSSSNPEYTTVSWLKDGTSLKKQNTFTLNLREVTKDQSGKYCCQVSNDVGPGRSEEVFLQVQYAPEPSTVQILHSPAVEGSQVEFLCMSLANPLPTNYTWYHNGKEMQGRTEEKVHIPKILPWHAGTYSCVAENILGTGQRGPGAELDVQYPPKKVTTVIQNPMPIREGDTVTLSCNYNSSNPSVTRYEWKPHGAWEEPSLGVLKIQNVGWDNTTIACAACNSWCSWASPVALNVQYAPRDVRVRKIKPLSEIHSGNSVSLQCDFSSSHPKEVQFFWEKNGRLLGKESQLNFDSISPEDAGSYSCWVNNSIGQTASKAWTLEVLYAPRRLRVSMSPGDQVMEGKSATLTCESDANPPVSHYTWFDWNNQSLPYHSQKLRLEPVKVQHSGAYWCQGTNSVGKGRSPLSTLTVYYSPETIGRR

[3] = target: T3, CD22 Protein (His Tag), Sino Biological Cat. No. 11958-H08H (UniProt P20273 20-687); assay: BLI, IgG on anti-human Fc sensor, 50 nM CD22
T3 construct: soluble analyte, 50 nM in BLI; also called Sino Biological antigen
T3 sequence (looked up): T2 sequence (looked up)

[4] = target: T3, CD22 Protein (His Tag), Sino Biological …; assay: BLI, IgG on anti-human Fc sensor

IC50 [1]: 0.24 nM
B1: MYT4405 (antibody, V domains shown)
VH: EVQLVQSGAEVKKPGASVKVSCKASGYRFTHYWIHWVRQAPGQGLEWIGGINPGNNYATYRRKFQGRVTMTADTSTSTVYMELSSLRSEDTAVYYCTREGYGHYGAWFAYWGQGTLVTVSS
VL: DVQVTQSPSSLSASVGDRVTITCRSSQSLANSYGNTFLSWYLHKPGKAPQLLIYGISNRFSGVPDRFSGSGSGTDFTLTISSLQPEDFATYYCLQGTHQPYTFGQGTKVEIK
notes: inotuzumab VH N31H+N103H; tie by order

binding result [2]: binds
binding result [3]: binds
B2: MYT0520 (antibody, V domains shown)
VH: B1 VH with Y27H, H31N, H103N
VL: B1 VL
notes: inotuzumab VH Y27H; tie by order

binding result [2]: binds
binding result [3]: binds
B3: MYT0550 (antibody, V domains shown)
VH: B1 VH with H31N
VL: B1 VL
notes: inotuzumab VH N103H; tie by order

IC50 [1]: 0.075 nM
B4: inotuzumab (antibody, V domains shown)
VH: B1 VH with H31N, H103N
VL: B1 VL
notes: IgG from Expi293, captured by anti-human Fc; entries headed heavy/light chain hold only the variable domains; also called MYT0518; INOTUZUMAB starting ABPC

binding result [2]: binds
binding result [3]: binds
B5: MYT0544 (antibody, V domains shown)
VH: B1 VH with H31N, T97H, H103N
VL: B1 VL
notes: inotuzumab VH T97H; tie by order

IC50 [1]: 0.115 nM
B6: MYT4424 (antibody, V domains shown)
VH: B1 VH with T59H
VL: B1 VL
notes: inotuzumab VH N31H+T59H+N103H; tie by order

binding result [2]: binds
binding result [3]: binds
B7: MYT0536 (antibody, V domains shown)
VH: B1 VH with H31N, Y57H, H103N
VL: B1 VL
notes: inotuzumab VH Y57H; tie by order

binding result [2]: binds
binding result [3]: binds
B8: MYT0526 (antibody, V domains shown)
VH: B1 VH with H31N, W33H, H103N
VL: B1 VL
notes: inotuzumab VH W33H; tie by order

IC50 [1]: 0.362 nM
B9: pinatuzumab (antibody, V domains shown)
VH: EVQLVESGGGLVQPGGSLRLSCAASGYEFSRSWMNWVRQAPGKGLEWVGRIYPGDGDTNYSGKFKGRFTISADTSKNTAYLQMNSLRAEDTAVYYCARDGSSWDWYFDVWGQGTLVTVSS
VL: DIQMTQSPSSLSASVGDRVTITCRSSQSIVHSVGNTFLEWYQQKPGKAPKLLIYKVSNRFSGVPSRFSGSGSGTDFTLTISSLQPEDFATYYCFQGSQFPYTFGQGTKVEIK
notes: IgG from Expi293; also called MYT1293; PINATUZUMAB starting ABPC

IC50 [1]: 0.395 nM
B10: MYT1331 (antibody, V domains shown)
VH: B9 VH with F107H
VL: B9 VL
notes: pinatuzumab VH F107H; tie by order

binding result [4]: no binding (tested: 50 nM)
B11: MYT4651 (antibody, V domains shown)
VH: QVQLVQSGSELKKPGASVKVSCKASGYTFTSYAMNWVRQAPGQGLEWMGWINTNTGNPTYAQGFTGRFVFSLDTSVSTAYLQISSLKAEDTAVYYCARLFYYYFGHDVWGQGTTVTVSS
VL: QSALTQPASVSGSPGQSITISCTGTSSDVGSYNLVSWYQLHPGKAPKLMIYEVSKRPSGVSNRFSGSRSGNTASLTISGLQAEDEADYYCCSYANSSTLVFGGGTKLTVL
notes: 12C5 VH M106H; tie by order

binding result [4]: no binding (tested: 50 nM)
B12: MYT4715 (antibody, V domains shown)
VH: QVQLQQWGAGLLKPSETLSLTCAVYGRSFSSYYWSWIRQPPGKGLEWIGDIQHSGSTNYNPSLKSRVTISVDTSKNQFSLKLSSVTAADTAVYYCHGTFYDILTGYYPLGYWGPGTLVTVSS
VL: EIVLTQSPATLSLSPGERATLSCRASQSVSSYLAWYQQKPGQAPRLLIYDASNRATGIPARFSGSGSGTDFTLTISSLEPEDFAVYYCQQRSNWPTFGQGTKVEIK
notes: 19A3 VH A96H; tie by order

binding result [4]: no binding (tested: 50 nM)
B13: MYT4718 (antibody, V domains shown)
VH: B12 VH with H96A, F99H
VL: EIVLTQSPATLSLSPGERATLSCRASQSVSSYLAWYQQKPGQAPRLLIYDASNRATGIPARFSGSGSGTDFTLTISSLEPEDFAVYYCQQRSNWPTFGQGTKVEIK
notes: 19A3 VH F99H; tie by order

binding result [4]: no binding (tested: 50 nM)
B14: MYT4723 (antibody, V domains shown)
VH: B12 VH with H96A, T104H
VL: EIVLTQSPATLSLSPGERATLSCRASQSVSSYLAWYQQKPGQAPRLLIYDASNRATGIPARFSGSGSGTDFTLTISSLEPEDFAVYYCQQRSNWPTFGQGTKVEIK
notes: 19A3 VH T104H; tie by order

binding result [4]: no binding (tested: 50 nM)
B15: MYT4720 (antibody, V domains shown)
VH: B12 VH with H96A, D101H
VL: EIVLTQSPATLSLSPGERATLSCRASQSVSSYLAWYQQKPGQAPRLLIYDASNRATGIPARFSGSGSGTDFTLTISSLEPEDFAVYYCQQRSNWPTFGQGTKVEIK
notes: 19A3 VH D101H; tie by order

Source: patent US20220288219A1 (MYTHIC THERAPEUTICS, published 2022)
